{"source": "paper PMC3462001", "biological_target": "Gab1 (UniProt Q9QYY0)", "assay": "co-immunoprecipitation, immunoblot", "details": "reference: wild-type PAR3 with PAR1b; sites S144,S873"}
{"substance": "PAR3 (from UniProt Q8TEW0) PAR3 S144A/S873A with PAR1b", "values": [{"measurement": "binding against the reference", "value": "stronger"}]}
